{
  "source": "paper PMC10003087",
  "about": "“VRK1 Kinase Activity Modulating Histone H4K16 Acetylation Inhibited by SIRT2 and VRK-IN-1” (International Journal of Molecular Sciences, 2023)",
  "target": "T1, GST-VRK1 (human, UniProt Q99986 1-396)",
  "T1 sequence (looked up)": "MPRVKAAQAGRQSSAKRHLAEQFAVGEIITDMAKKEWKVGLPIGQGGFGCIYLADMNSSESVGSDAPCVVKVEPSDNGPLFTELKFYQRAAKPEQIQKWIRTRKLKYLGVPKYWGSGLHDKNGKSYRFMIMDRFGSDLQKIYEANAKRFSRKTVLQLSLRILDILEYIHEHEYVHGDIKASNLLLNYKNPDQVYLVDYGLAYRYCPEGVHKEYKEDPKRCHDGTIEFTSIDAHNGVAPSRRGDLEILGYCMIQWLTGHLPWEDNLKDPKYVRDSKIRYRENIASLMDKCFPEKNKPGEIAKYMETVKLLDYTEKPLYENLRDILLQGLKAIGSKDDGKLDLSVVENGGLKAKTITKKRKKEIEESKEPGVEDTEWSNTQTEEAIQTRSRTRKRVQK",
  "assay": "cell-based or functional assay",
  "data": [
    {"binder": "SIRT2-his (enzyme, human, UniProt Q8IXJ6 1-389, looked up) MAEPDPSHPLETQAGKVQEAQDSDSDSEGGAAGGEADMDFLRNLFSQTLSLGSQKERLLDELTLEGVARYMQSERCRRVICLVGAGISTSAGIPDFRSPSTGLYDNLEKYHLPYPEAIFEISYFKKHPEPFFALAKELYPGQFKPTICHYFMRLLKDKGLLLRCYTQNIDTLERIAGLEQEDLVEAHGTFYTSHCVSASCRHEYPLSWMKEKIFSEVTPKCEDCQSLVKPDIVFFGESLPARFFSCMQSDFLKVDLLLVMGTSLQVQPFASLISKAPLSTPRLLINKEKAGQSDPFLGMIMGLGGGMDFDSKKAYRDVAWLGECDQGCLALAELLGWKKELEDLVRREHASIDAQSGAGVPNPSTSASPKKSPPPAKDEARTTEREKPQ", "values": [
      {"measurement": "IC50 of SIRT2 for inhibition of VRK1 autophosphorylation (in vitro kinase assay, dose-dependent)", "result": 190, "unit": "nM"},
      {"measurement": "IC50 of SIRT2 for inhibition of the phosphorylation of histone H3 by VRK1 (in vitro kinase assay, dose-dependent)", "result": 150, "unit": "nM"}
    ]}
  ]
}
